Four molecules from article PMC7353053, “Characterisation of the Effect of the Spatial Organisation of Hemicellulases on the Hydrolysis of Plant Biomass Polymer” (International Journal of Molecular Sciences, 2020) can be followed below.

Broadly, the stoichiometry N is the number of molecules, sites or subunits per partner or assembly. The Km is the substrate concentration at which the rate is half of its maximum. The term kcat denotes the maximal rate divided by the concentration of active sites. The kcat/Km is the second-order rate constant that governs catalysis at low substrate concentration.

Data set [1] deals with His-In-NpXyn11A-BhXyl43-Jo (not stated | Neocallimastix patriciarum | Bacillus halodurans C-125). Put plainly: SAXS; proteins in 50 mM phosphate pH 7, around 10 mg/mL; direct injection and online SEC-HPLC curves merged; fit to the dimer of PDB 1YRZ or rigid body modelling; dimer to monomers. (In general: Size exclusion chromatography separates by hydrodynamic size, large species first.)

The target in data set [2] is His-BhXyl43 (Bacillus halodurans C-125). The description is as above.
Data set [3] has as its target His-In-NpXyn11A-Jo-BhXyl43 (not stated | Neocallimastix patriciarum | Bacillus halodurans C-125). The description is as above.
Substrate in the data set “purified protein”: O=[N+]([O-])c1ccc(O[C@@H]2OC[C@@H](O)[C@H](O)[C@H]2O)cc1
Put plainly: purified protein. The class given is biochemical, Halalkalibacterium halodurans. As to conditions: 50 mM Tris-HCl pH 8, 1 mg/mL BSA, 45 °C, 10 min, 0.1 to 18 mM substrate.

The molecule His-In-NpXyn11A-BhXyl43-Jo (complex) showed a stoichiometry N in data set [1] of 2.

The molecule His-BhXyl43 (enzyme) displayed a stoichiometry N in data set [2] of 2.

In data set [3], His-In-NpXyn11A-Jo-BhXyl43 (complex) showed a stoichiometry N of 2.

B1: His-Jo-BhXyl43 (Halalkalibacterium halodurans C-125) (protein)
chain: MVNRIQNPILPGFHPDPSIVRVGDDYYIATSTFEWFPGVRIHHSRDLKHWRFVSSPLTRTSQLDMKGNMNSGGIWAPCLSYHDGTFYLIYTDVKQWHGAFKDAHNYLVTAQNIEGPWSDPIYLNSSGFDPSLFHDDDGRKWLVNMIWDYRKGNHPFAGIILQEYSEAEQKLVGPVKNIYKGTDIQLTEGPHLYKKDGYYYLLVAEGGTEYEHAATLARSQSIDGPYETDPSYPLVTSTGQPELALQKAGHGSLVETQNGEWYLAHLCGRPLKGKYCTLGRETAIQKVNWTEDGWLRIEDGGNHPLREVTAPDLPEHPFEKEPELDDFDAPQLHHQWNTLRIPADPSWCSLEERPGHLRLRGMESLTSVHSQSLVARRQQSFHCEVETKLEYQPESFQHMAGLVIYYDTEDHVYLHVTWHEEKGKCLQIIQTKGGNYDELLASPIPLAEEKAVYLKGRIHRETMHLYFKQEGEAEWQPVGPTIDVTHMSDDSAKQVRFTGTFVGMATQDLSGTKKPADFDYFRYKELDQ
notes: N-terminal His6 tag and Jo module (about 10 kDa, isopeptide-forming fragment) fused to the N-terminus of BhXyl43 (63 kDa); expressed in E. coli BL21(DE3), IMAC purified
For the molecule B1, in “purified protein”, the Km was determined as 6.01 ± 0.41 mM, the kcat was determined as 18.1 ± 1.17 s⁻¹ and the kcat/Km was 3015 ± 10.9 M⁻¹ s⁻¹.
